Data reported in US6518397B1, “Pharmaceuticals for modulating hormone responsiveness” (priority 1995, dated 2003).
“Also recorded” adds a separate entry of the source. Where no end group is shown, it is not given here.

T1: DNA binding domain of recombinant rat androgen receptor (AR) / calreticulin (p60) (Homo sapiens, UniProt P27797)
T1 construct: endogenous in cells
T1 sequence (P27797 18-417): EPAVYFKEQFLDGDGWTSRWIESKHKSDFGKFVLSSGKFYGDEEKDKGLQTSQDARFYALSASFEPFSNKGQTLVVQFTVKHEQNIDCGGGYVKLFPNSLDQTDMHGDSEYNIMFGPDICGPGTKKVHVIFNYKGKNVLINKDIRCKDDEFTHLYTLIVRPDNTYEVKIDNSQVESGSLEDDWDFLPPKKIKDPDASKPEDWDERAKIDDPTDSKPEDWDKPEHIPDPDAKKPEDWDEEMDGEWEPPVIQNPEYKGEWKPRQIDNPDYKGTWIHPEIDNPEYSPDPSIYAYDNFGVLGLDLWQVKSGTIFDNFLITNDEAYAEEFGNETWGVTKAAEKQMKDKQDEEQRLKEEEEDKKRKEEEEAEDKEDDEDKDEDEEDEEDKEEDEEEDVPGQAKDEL

T2: calreticulin as used in the gel mobility shift assays of Examples 7 and 15 (Homo sapiens (Human), UniProt P27797 18-417)
T2 construct: Could be m1 or m2
T2 sequence: T1 sequence (P27797 18-417)

B1: KVFFKR peptide (peptide)
peptide: KVFFKR
notes: also called 285; androgen receptor derived peptide
B2: KLGFFKR synthetic peptide (peptide)
peptide: KLGFFKR
notes: Used free in solution and immobilised on sepharose; also called KLGFFKR-sepharose

What was measured:
[1] = target: T1, DNA binding domain of recombinant rat androgen receptor (AR) / calreticulin (p60); assay: Gel mobility shift (gel retardation) assay: calreticulin (p60) inhibition of AR-ARE binding and its reversal by peptides/antibody; conditions: for Reversal of GST-calreticulin (recombinant calreticulin) inhibition of AR-ARE interaction: calreticulin 2 μg, peptides at 50-fold molar excess; for Reversal of p60 (calreticulin) inhibition of AR-ARE binding: peptide, antibody or IgG pre-incubated with p60; for Effectiveness of binding to calreticulin, in words: effect of substitution in KXFFX1R sequence, band shift
Procedure: To determine whether p60 (calreticulin) could directly modulate the binding of nuclear hormone receptors to DNA via the KXFFX^1R [SEQ ID NO:1] sequence, the interaction of the DNA binding domain of recombinant androgen receptor with its hormone responsive element was analyzed by carrying out gel mobility shift assays.
(§1) As described in Rennie et al., 1993, DNA binding domain of recombinant rat androgen receptor was prepared as a GST-fusion protein using the pGEX-3X vector and purified by glutathione-agarose affinity chromatography. p60 (calreticulin) was purified by affinity chromatography on KLGFFKR-sepharose [SEQ ID NO:7], followed by gel electrophoresis as described in detail in Rojiani et al., 1991. […] Recombinant calreticulin (GST-fusion protein) was prepared as described by Baksh and Michalak, 1991. Gel retardation assays were carried out as described by Rennie et al., 1993. To analyze the effect of p60, or recombinant calreticulin, on receptor-DNA binding activity, the AR was pre-incubated with p60 for 30 min at 4° C. To analyze the effects of synthetic peptides, anti-calreticulin antibody, and non-immune IgG on p60 inhibition of AR-ARE binding, the peptide, antibody or IgG were pre-incubated with p60 for 30 min at 4° C. The androgen receptor preparation was then added to these mixtures and further incubated for 30 min at 4° C.
Affinity purified DNA binding domain of the recombinant rat androgen receptor (AR) was pre-incubated with or without the indicated concentrations of purified p60 at 4° C. for 30 min. After this pre-incubation the reaction mixtures were incubated with ^32P-labeled 26 base pair ARE (Rennie et al., 1993) (androgen response element), and analyzed by gel retardation assay. The sequence of the ARE used was [SEQ ID NO:28]:
Amino acids in the KXFFX^1R [SEQ ID NO: 1] sequence were modified. Androgen receptor and calreticulin were incubated in the presence of the modified peptides and allowed to interact with an oligonucleotide containing the androgen response element (the method of this assay is described in Example 3). The interaction was analyzed by gel mobility shaft assay (FIGS. 5A-5C).

[2] = test system: retinoic acid receptor mediated gene transcription (bRARE luciferase) in P19 cells; assay: RARE-driven luciferase reporter in P19 cells after peptide preincubation; assay type: cell-based, mouse; conditions: for Luciferase × 10^6: P19 cells, 10^-7 retinoic acid
Procedure: In order to test whether a peptide based on the calreticulin-binding KXGFFKR [SEQ ID NO:30] sequence modulates retinoic acid induced gene transcription in live cells, the p19 cells were transfected with a reporter vector consisting of a retinoic acid response element fused to the luciferase gene.
Cell culture conditions: Mouse embryonic carcinoma (P19) cell, grown in 60 mm dishes in 7.5% donor calf serum, 2.5% fetal calf serum alpha MEM (Gibco/BRL) were treated with the peptides KLGFFKR [SEQ ID NO:7] or KLRFGFK [SEQ ID NO:29] for three hours or overnight for 20 hours at 37° C., 5% CO2. With few exceptions, KLXFFKR [SEQ ID NO:31] is the peptide sequence specific within the binding domain of all steroid receptors. KLRFGFK [SEQ ID NO:29] is the scrambled peptide of the above sequence. Subsequently each plate was washed four times with serum free alpha MEM to remove excess peptides and replenished with fresh serum containing media. Cells were then transfected by standard calcium phosphate precipitation method (Current Protocols in Molecular Biology 9:1) with 1 microgram bRARE in pTKluc, 1.5 microgram pRSV bgal, 3 microgram pKS (carrier) per 60 mm dish. Following a 16 hour incubation at 37° C. 5% CO2, each plate was washed two times with serum free alphaMEM and replenished with serum containing media supplement with […] retinoic acid (Sigma R2625) and 800 microgram/ml G418 (Gibco 1181-031). Following another 24 hours incubation cells were washed three times with PBS and each 60 mm dish of cells was lysed in 100 microliters of 1 % triton X100, 100 mM KPO4 pH7.8, 1 mM DTT. Cell lysates were stored at −70° C. Prior to luciferase/bgal assays, cell debris were spun out on an Eppendorf microfuge (5415C) at 4° C. full speed for 20 minutes.
Luciferase assay: All reagents were equilibrated to room temperature and each sample was assayed independently. Ten microliters of cell lysate was incubated with 50 microliters of luciferase reagent (Promega E1483) in an Eppendorf tube. Thirty seconds later, the sample was immediately counted in a Beckman scintillation counter (LS6000IC) for one minute using an open window. Standards in the range of 0.001 nanogram to 1.0 nanogram was used to establish the linearity of the assay.
Beta-gal assay: Assay was done in a microtitre plate (Linbro 76-232-05). Ten microliters of cell lysate were mixed with 90 microliters of bgal reagent in 88 mM phosphate buffer, 11 mM KCl, 1 mM MgCl2, 55 mM 2ME, 4.4 mM chlorophenol red b-D-galactopyranoside (BMC 884-308). Incubation period varied from 30 minutes to 2 hours at 37° C. Results were read at 570 nm in an ELISA reader (Dynatech MR5000).

[3] = target: T2, calreticulin as used in the gel …; assay: gel mobility shift, PhosphorImager; reversal of calreticulin inhibition of RAR/RXR binding to its DNA response element; competitor RAR/RXR
Text: (§2) This Table relates to the retinoic acid receptors (RAR/RXR) and the androgen receptor (AR). […] The data was quantified using a Phosphormager (Molecular Dynamics).

[4] = target: T2, calreticulin as used in the gel …; assay: gel mobility shift, PhosphorImager; reversal of calreticulin inhibition of AR binding to its DNA response element; competitor AR
Procedure: as §1, with “To analyze the effects of synthetic peptides, anti-calreticulin antibody, and non-immune IgG on p60 inhibition of AR-ARE binding, the peptide, antibody or IgG were pre-incubated with p60 for 30 min at 4° C.” left out
as §2

[5] = target: T2, calreticulin as used in the gel …; assay: gel mobility shift; reversal of calreticulin inhibition of receptor-DNA binding; competitor VDR/RXR, reference RAR/RXR
Procedure: (§3) Example 7 Peptides Having Differential Specificities for Disrupting Different Hormone Receptor-Calreticulin Interactions To identify peptides having different specificities, we utilized gel mobility shift assays (see Example 3) in which known concentrations of purified recombinant androgen receptor, estrogen receptor, retinoic acid receptors (RAR/RXR and RXR/RXR) (Shago et al., 1994) and vitamin D receptor (Xu et al., 1993) were incubated with known concentrations of either recombinant calreticulin, or calreticulin purified by affinity chromatography on a KLGFFKR affinity column [SEQ ID NO:7] (see Example 3) in the presence of the respective ^32P-labelled DNA response elements and known concentrations of synthetic peptides based on the KXFFX[1]R [SEQ ID NO:1] sequence. In addition to the linear peptides, some peptides were cyclized by adding cysteine residues at either ends.

[6] = target: T2, calreticulin as used in the gel …; assay: gel mobility shift; reversal of calreticulin inhibition of receptor-DNA binding; competitor RXR/RXR, reference RAR/RXR
Procedure: as §3

[7] = overnight preincubation with 10 micromolar peptide
[8] = overnight preincubation with 50 micromolar peptide
[9] = overnight preincubation with 100 micromolar peptide

| Molecule | Effectiveness of binding to calreticulin, in words [1] | % Reversal [3] | % Reversal [4] | also measured |
| --- | --- | --- | --- | --- |
| KVFFKR [compound 285] | – | – | – | Reversal of GST-calreticulin (recombinant calreticulin) inhibition of AR-ARE interaction [1]: can also reverse the inhibition; also recorded: reversed; Reversal of p60 (calreticulin) inhibition of AR-ARE binding [1]: reversed |
| KLRFGFK [reference compound] | – | – | – | Reversal of p60 (calreticulin) inhibition of AR-ARE binding [1]: much less effective; Corrected values luc/bgal [2, 7]: 42.04; Luciferase × 10^6 [2, 7]: 14 × 10^6; Corrected values luc/bgal [2, 8]: 41.34; Luciferase × 10^6 [2, 8]: 16 × 10^6; Corrected values luc/bgal [2, 9]: 32.26; Luciferase × 10^6 [2, 9]: 14 × 10^6 |
| KVFAKR [compound 429] | decreased the ability of peptides to bind calreticulin | – | – | – |
| KVFFKA [compound 430] | decreased the ability of peptides to bind calreticulin | – | – | – |
| bovine serum albumin: other protein of similar size, used as control [reference compound] | – | – | – | Effect of protein on AR-ARE (receptor-DNA) complex formation ([1]; protein pre-incubated with AR 30 min at 4° C.): did not have any effect on the nuclear receptor-DNA interaction |
| KGFFGR [compound 416] | decreased the ability of peptides to bind calreticulin | – | – | – |
| KVAFKR (not fully specified) [compound 427] | decreased the ability of peptides to bind calreticulin | – | – | – |
| KGRFKR [compound 414] | increased the effectiveness of binding to calreticulin | – | – | – |
| KGFRKR [compound 415] | increased the effectiveness of binding to calreticulin | – | – | – |
| KGFRRR [compound 421] | increased the effectiveness of binding to calreticulin | – | – | – |
| KLGFFKR | – | – | – | Reversal of GST-calreticulin (recombinant calreticulin) inhibition of AR-ARE interaction [1]: Reversal of this inhibition; Reversal of p60 (calreticulin) inhibition of AR-ARE binding [1]: reversed; Effect by itself on the receptor-DNA interaction ([1]; without p60, data not shown): neither KLGFFKR peptide [SEQ ID NO:7], anti-calreticulin antibody, nor non-immune IgG by themselves had any effect; Corrected values luc/bgal [2, 7]: 32.91; Luciferase × 10^6 [2, 7]: 13 × 10^6; Corrected values luc/bgal [2, 8]: 45.15; Luciferase × 10^6 [2, 8]: 20 × 10^6; Luciferase × 10^6 [2, 9]: 28 × 10^6; Luciferase activity (retinoic acid receptor mediated gene transcription), in words ([2]; pre-incubation of P19 cells with peptide): dose-dependent increase in luciferase activity |
| KGFFKG [compound 417] | decreased the ability of peptides to bind calreticulin | – | – | – |
| KGRFRR [compound 420] | increased the effectiveness of binding to calreticulin | – | – | – |
| KGFFKR (also called 409) [KGFFKR peptide] | – | 100% | – | – |
| B1 | – | – | 100% | – |
| KLRFGFK (Control) [KLRFGFK scrambled peptide] | – | 34% | – | – |
| B2 | – | 100% | 62% | fold potency against VDR/RXR compared to RAR/RXR [5]: 10 fold; fold potency against RXR/RXR compared to RAR/RXR [6]: 4 fold |
| KLGFFKG [KLGFFKG peptide] | – | 22% | 63% | – |
| KLDFFKR [KLDFFKR peptide] | – | 73% | 0% | – |
| KLGRFKR [KLGRFKR peptide] | – | 24% | 10% | – |
| GLGFFKR [GLGFFKR peptide] | – | 45% | 100% | – |
| KLGFRKR [KLGFRKR peptide] | – | 20% | 6% | – |
| KLGFFGR [KLGFFGR peptide] | – | 65% | 85% | – |
